According to the Human Domainome abundance scans (Beltran et al. 2025):
± gives the uncertainty stated by the source.

B1: Homeobox protein cut-like 2, residues 895 to 963; numbered along this chain, O14529 (parent)
chain: EVDTLELTRQVKEKLAKNGICQRIFGEKVLGLSQGSVSDMLSRPKPWSKLTQKGREPFIRMQLWLSDQL

Variants of: B1
Test: abundance fitness (aPCA) (normalised: wild type 0, dead -1); higher = more abundant; growth selection in yeast, the domain comes from the species named
Settings: Homo sapiens
G31W showed an abundance fitness of -0.367 ± 0.058. Work on G31I yielded an abundance fitness of -0.712 ± 0.068. With G31S the abundance fitness was -0.134 ± 0.032. Variant G31M has an abundance fitness of -0.347 ± 0.068. G31P showed an abundance fitness of -0.378 ± 0.038. Work on G31L yielded an abundance fitness of -0.314 ± 0.036. In the case of G31F, the abundance fitness is reported as -0.317 ± 0.049. Work on G31E yielded an abundance fitness of -0.48 ± 0.1. For G31Y, the abundance fitness was -0.449 ± 0.062. G31T showed an abundance fitness of -0.274 ± 0.039. G31K gave an abundance fitness of -0.129 ± 0.076. For G31H, the abundance fitness was -0.059 ± 0.054. With G31D the abundance fitness was -0.132 ± 0.072. G31V showed an abundance fitness of -0.514 ± 0.052. Work on G31R yielded an abundance fitness of -0.107 ± 0.038. In the case of G31Q, the abundance fitness is reported as -0.213 ± 0.064. G31A showed an abundance fitness of -0.226 ± 0.042. With G31C the abundance fitness was -0.257 ± 0.044. With G31N the abundance fitness was -0.121 ± 0.081. For S36E, the abundance fitness was 0.152 ± 0.054. S36H showed an abundance fitness of -0.062 ± 0.036. S36R gave an abundance fitness of -0.097 ± 0.056. In the case of S36Q, the abundance fitness is reported as 0.15 ± 0.032. In the case of S36P, the abundance fitness is reported as -0.08 ± 0.028. For S36G, the abundance fitness was -0.34 ± 0.089. Work on S36A yielded an abundance fitness of 0.073 ± 0.035. In the case of S36L, the abundance fitness is reported as 0.021 ± 0.025. Work on S36T yielded an abundance fitness of 0.002 ± 0.028. With S36Y the abundance fitness was -0.062 ± 0.043. For S36N, the abundance fitness was -0.045 ± 0.041. Work on S36I yielded an abundance fitness of 0.027 ± 0.036. S36F showed an abundance fitness of -0.093 ± 0.041. Work on S36W yielded an abundance fitness of -0.057 ± 0.064. S36V showed an abundance fitness of 0.064 ± 0.035. Variant S36D has an abundance fitness of 0.134 ± 0.051. Work on S36M yielded an abundance fitness of -0.024 ± 0.028. With K28P the abundance fitness was -0.6 ± 0.04. Variant K28E has an abundance fitness of -0.026 ± 0.043. With K28V the abundance fitness was -0.184 ± 0.035. Work on K28M yielded an abundance fitness of -0.155 ± 0.032. With K28T the abundance fitness was -0.078 ± 0.033. Work on K28Y yielded an abundance fitness of -0.296 ± 0.047. Work on K28F yielded an abundance fitness of -0.327 ± 0.038. Variant K28C has an abundance fitness of -0.293 ± 0.055. In the case of K28Q, the abundance fitness is reported as 0.012 ± 0.033. K28H showed an abundance fitness of -0.128 ± 0.054. K28L gave an abundance fitness of -0.335 ± 0.027. Variant K28N has an abundance fitness of -0.242 ± 0.049. In the case of K28G, the abundance fitness is reported as -0.184 ± 0.035. In the case of K28I, the abundance fitness is reported as -0.502 ± 0.055. With K28W the abundance fitness was -0.263 ± 0.037. Variant K28R has an abundance fitness of -0.1 ± 0.032. K28A gave an abundance fitness of -0.19 ± 0.04. Work on K28S yielded an abundance fitness of -0.116 ± 0.028. Variant Q34C has an abundance fitness of -0.262 ± 0.18. Variant Q34M has an abundance fitness of -0.06 ± 0.041. For Q34Y, the abundance fitness was -0.05 ± 0.038. Variant Q34L has an abundance fitness of -0.003 ± 0.028. Q34I showed an abundance fitness of 0.005 ± 0.037. In the case of Q34A, the abundance fitness is reported as 0.088 ± 0.081. In the case of Q34H, the abundance fitness is reported as 0.027 ± 0.038. For Q34S, the abundance fitness was -0.028 ± 0.031. Variant Q34W has an abundance fitness of 0.088 ± 0.15. Work on Q34E yielded an abundance fitness of -0.254 ± 0.22. In the case of Q34D, the abundance fitness is reported as -0.078 ± 0.14. For Q34R, the abundance fitness was 0.282 ± 0.13. Q34G showed an abundance fitness of 0.434 ± 0.23. For Q34N, the abundance fitness was 0.046 ± 0.038. Variant Q34K has an abundance fitness of 0.069 ± 0.045. For Q34P, the abundance fitness was 0.053 ± 0.029. For Q34F, the abundance fitness was 0.003 ± 0.04. Q34V showed an abundance fitness of 0.073 ± 0.13. In the case of G26I, the abundance fitness is reported as -0.284 ± 0.05. G26M showed an abundance fitness of -0.153 ± 0.039. G26K showed an abundance fitness of -0.207 ± 0.049. For G26V, the abundance fitness was -0.263 ± 0.037. Variant G26S has an abundance fitness of -0.035 ± 0.033. With G26L the abundance fitness was -0.162 ± 0.028. Variant G26Q has an abundance fitness of -0.584 ± 0.12. G26F showed an abundance fitness of -0.02 ± 0.032. With G26W the abundance fitness was -0.591 ± 0.035. In the case of G26A, the abundance fitness is reported as 0.082 ± 0.065. G26R gave an abundance fitness of -0.295 ± 0.042. For G26E, the abundance fitness was -0.397 ± 0.073. With G26P the abundance fitness was -0.219 ± 0.16. In the case of G26H, the abundance fitness is reported as -0.525 ± 0.12. For G26Y, the abundance fitness was -0.169 ± 0.042. G26C showed an abundance fitness of -0.02 ± 0.032. G26D gave an abundance fitness of -0.306 ± 0.084. With G26T the abundance fitness was -0.221 ± 0.063. For V37R, the abundance fitness was -0.223 ± 0.032. For V37H, the abundance fitness was -0.378 ± 0.048. Work on V37N yielded an abundance fitness of -0.435 ± 0.1. Variant V37Y has an abundance fitness of -0.257 ± 0.06. V37L gave an abundance fitness of 0.016 ± 0.027. With V37P the abundance fitness was -0.311 ± 0.028. Work on V37I yielded an abundance fitness of -0.156 ± 0.046. V37T showed an abundance fitness of 0 ± 0.043. In the case of V37D, the abundance fitness is reported as -0.397 ± 0.093. V37W gave an abundance fitness of -0.061 ± 0.038. V37A showed an abundance fitness of -0.139 ± 0.038. V37E showed an abundance fitness of -0.436 ± 0.087. With V37F the abundance fitness was 0.01 ± 0.042. For V37M, the abundance fitness was -0.227 ± 0.051. Work on V37K yielded an abundance fitness of -0.232 ± 0.069. V37C gave an abundance fitness of -0.031 ± 0.038. Variant V37S has an abundance fitness of -0.232 ± 0.032. Variant V37G has an abundance fitness of -0.206 ± 0.048. For I24A, the abundance fitness was -0.117 ± 0.064. I24F showed an abundance fitness of 0.143 ± 0.056. For I24N, the abundance fitness was -0.204 ± 0.079. With I24L the abundance fitness was 0.033 ± 0.029. I24W showed an abundance fitness of 0.103 ± 0.034. Variant I24Y has an abundance fitness of 0.097 ± 0.059. With I24D the abundance fitness was -0.047 ± 0.12. I24C showed an abundance fitness of -0.243 ± 0.042. I24G gave an abundance fitness of -0.347 ± 0.042. Variant I24M has an abundance fitness of -0.023 ± 0.037. I24H showed an abundance fitness of 0.007 ± 0.085. I24K gave an abundance fitness of -0.084 ± 0.051. In the case of I24R, the abundance fitness is reported as -0.093 ± 0.034. I24E gave an abundance fitness of 0.278 ± 0.046. With I24P the abundance fitness was -0.934 ± 0.12. In the case of I24S, the abundance fitness is reported as -0.084 ± 0.036. R23N gave an abundance fitness of 0.038 ± 0.13. In the case of R23V, the abundance fitness is reported as -0.162 ± 0.03. With R23S the abundance fitness was -0.101 ± 0.035. R23T showed an abundance fitness of -0.155 ± 0.044. For R23L, the abundance fitness was -0.203 ± 0.029. For R23M, the abundance fitness was -0.207 ± 0.034. For R23W, the abundance fitness was -0.154 ± 0.044. In the case of R23K, the abundance fitness is reported as 0.047 ± 0.049. In the case of R23P, the abundance fitness is reported as -0.627 ± 0.051. For R23Q, the abundance fitness was -0.079 ± 0.048. Work on F25V yielded an abundance fitness of -0.646 ± 0.037. With F25L the abundance fitness was -0.351 ± 0.033. F25G gave an abundance fitness of -0.9 ± 0.064. F25R showed an abundance fitness of -0.568 ± 0.067. Variant F25S has an abundance fitness of -0.721 ± 0.061. Work on F25N yielded an abundance fitness of -0.803 ± 0.17. In the case of F25C, the abundance fitness is reported as -0.707 ± 0.067. In the case of F25K, the abundance fitness is reported as -0.62 ± 0.054. F25T showed an abundance fitness of -0.449 ± 0.063. With F25W the abundance fitness was -0.053 ± 0.042. For F25P, the abundance fitness was -1.05 ± 0.41. Work on F25I yielded an abundance fitness of -0.711 ± 0.14. Variant F25E has an abundance fitness of -0.904 ± 0.054. With F25M the abundance fitness was -0.462 ± 0.046. Variant F25Y has an abundance fitness of -0.779 ± 0.1. In the case of F25A, the abundance fitness is reported as -0.827 ± 0.079. With L41S the abundance fitness was -0.234 ± 0.032. For L41W, the abundance fitness was -0.25 ± 0.055. L41R showed an abundance fitness of -0.226 ± 0.051. Variant L41D has an abundance fitness of -0.353 ± 0.18. L41V gave an abundance fitness of -0.518 ± 0.092. Work on L41A yielded an abundance fitness of -0.223 ± 0.079. L41G gave an abundance fitness of -0.107 ± 0.11. L41K gave an abundance fitness of -0.193 ± 0.032. Work on L41T yielded an abundance fitness of -0.505 ± 0.035. For L41P, the abundance fitness was -0.257 ± 0.032. Work on L41E yielded an abundance fitness of -0.41 ± 0.11. Work on L41C yielded an abundance fitness of -0.452 ± 0.13. L41N showed an abundance fitness of -0.481 ± 0.067. For L41Q, the abundance fitness was -0.303 ± 0.037. With L41I the abundance fitness was -0.315 ± 0.056. In the case of L41F, the abundance fitness is reported as -0.088 ± 0.046. Variant L41H has an abundance fitness of -0.37 ± 0.05.
